Here are results for two molecules from article PMC3717276, “Optimization and validation of mitochondria-based functional assay as a useful tool to identify BH3-like molecules selectively targeting anti-apoptotic Bcl-2 proteins” (BMC Biotechnology, 2013).

In assay [1] the target is Human Bcl-2 protein (isoform 2 construct), N-terminal 6xHis tagged recombinant protein (human). Description: fluorescence polarisation; competition: Mcl-1 (20 nM) or Bcl-2 (40 nM) pre-incubated with FAM-Bid (2 nM and 2.5 nM), tested BH3 peptide added, 2-3 h; 100 mM potassium phosphate, pH 7.5, 100 ug/ml bovine gamma globulin, 0.02% sodium azide; Ki calculated from IC50.
Assay [2] has the same target. Description: SPR; competitive solution binding: protein (20 nM) pre-incubated with tested BH3 peptide for at least 30 min, injected over immobilised biotin-Bim BH3 peptide; response at 30 s of dissociation. (In general: Surface plasmon resonance follows binding to a sensor surface in real time, without labels.)

Consider NLWAAQRYGRELRRMSDEFVDSFKKG [Bad BH3 peptide (residues 103-128)], for which the Ki in assay [1] is 7.1 nM. In assay [2], the IC50 was 4.37 nM.
For the molecule PAELEVECATQLRRFGDKLNFRQKLL [Noxa BH3 peptide (residues 18-43)], in assay [1], the Ki is greater than 10000 nM. Moreover, the IC50 in assay [2] is greater than 30000 nM.

The Ki is a measure of affinity in units of concentration, obtained from inhibition or displacement. One may read the IC50 as the concentration at which inhibition is half-maximal.
